For one molecule, Kd results are on record in patent publication US20200206312A1 (EISAI, published 2020).

In test [1] the target is T1, Recombinant human NRP1 with His Tag (Sino Biological Inc.; Cat #1001-H08H) (human, UniProt O14786-2 22-644).
T1 construct: also called Neuropilin 1
T1 sequence (looked up): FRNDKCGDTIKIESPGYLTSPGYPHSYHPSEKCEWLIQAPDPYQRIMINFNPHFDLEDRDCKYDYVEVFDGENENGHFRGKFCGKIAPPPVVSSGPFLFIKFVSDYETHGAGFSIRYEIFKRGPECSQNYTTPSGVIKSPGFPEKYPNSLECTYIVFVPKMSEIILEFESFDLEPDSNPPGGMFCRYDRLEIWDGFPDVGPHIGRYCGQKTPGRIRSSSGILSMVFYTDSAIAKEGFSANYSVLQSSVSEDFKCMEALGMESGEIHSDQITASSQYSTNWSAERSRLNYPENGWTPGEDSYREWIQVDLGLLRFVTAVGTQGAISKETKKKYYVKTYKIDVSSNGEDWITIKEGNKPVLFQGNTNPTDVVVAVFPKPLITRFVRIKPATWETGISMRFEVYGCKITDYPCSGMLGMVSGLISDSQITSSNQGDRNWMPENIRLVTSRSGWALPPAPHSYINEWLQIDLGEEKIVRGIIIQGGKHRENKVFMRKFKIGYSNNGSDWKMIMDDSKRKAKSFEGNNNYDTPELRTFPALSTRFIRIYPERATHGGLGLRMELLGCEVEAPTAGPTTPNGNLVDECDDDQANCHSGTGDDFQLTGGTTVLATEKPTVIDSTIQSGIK
The test can be described thus: BLI (Octet Red96), biotinylated VEGF165 on streptavidin sensor, NRP1 in solution. On the technique in general: Biolayer interferometry detects binding as a change in optical thickness at a sensor tip.

In test [2] the target is T1, Recombinant human NRP1 with His Tag …. The test can be described thus: BLI (Octet Red96), biotinylated VEGF165 on streptavidin sensor, NRP1 in solution; value 1 of 6 in the cell.
Test [3] shares this target. The test can be described thus: BLI (Octet Red96), biotinylated VEGF165 on streptavidin sensor, NRP1 in solution; value 2 of 6 in the cell.
For test [4] the target is unchanged. The test can be described thus: BLI (Octet Red96), biotinylated VEGF165 on streptavidin sensor, NRP1 in solution; value 3 of 6 in the cell.
Test [5] shares this target. The test can be described thus: BLI (Octet Red96), biotinylated VEGF165 on streptavidin sensor, NRP1 in solution; value 4 of 6 in the cell.
For test [6] the target is unchanged. The experiment in a line: BLI (Octet Red96), biotinylated VEGF165 on streptavidin sensor, NRP1 in solution; value 5 of 6 in the cell.
Test [7] shares this target. The test can be described thus: BLI (Octet Red96), biotinylated VEGF165 on streptavidin sensor, NRP1 in solution; value 6 of 6 in the cell.

B1: Biotinylated recombinant Human VEGF165 (ACRO Biosystems; Cat # VE5-H8210) (ligand, UniProt P15692-4 27-191, looked up)
chain: APMAEGGGQNHHEVVKFMDVYQRSYCHPIETLVDIFQEYPDEIEYIFKPSCVPLMRCGGCCNDEGLECVPTEESNITMQIMRIKPHQGQHIGEMSFLQHNKCECRPKKDRARQENPCGPCSERRKHLFVQDPQTCKCSCKNTDSRCKARQLELNERTCRCDKPRR
notes: also called biotinylated VEGF
As to B1, the dissociation constant Kd (usually the equilibrium constant for the complex coming apart) was 40 to 98 nM in test [1]; 43 nM in test [2]; 26 nM in test [3]; 75 nM in test [4]; 98 nM in test [5]; 18 nM in test [6]. Further, the dissociation constant Kd in test [7] stood at 26 nM.
